Measured values published in the Human Domainome abundance scans (Beltran et al. 2025).
± gives the uncertainty stated by the source.

B1: Nuclear receptor subfamily 4 group A member 2, residues 260 to 336; numbered along this chain, P43354 (parent)
chain: EGLCAVCGDNAACQHYGVRTCEGCKGFFKRTVQKNAKYVCLANKNCPVDKRRRNRCQYCRFQKCLAVGMVKEVVRTD

Variants of: B1
Experiment: abundance fitness (aPCA) (normalised: wild type 0, dead -1); higher = more abundant; growth selection in yeast, the domain comes from the species named
Details: Homo sapiens

In order of rising abundance fitness:
1. EGLCAVCGDNAACQHYGVRTCEGCKGFFKRTVQKNAKYVCLANKNCPVCKRRRNRCQYCRFQKCLAVGMVKEVVRTD [D49C]  -0.67 ± 0.14
2. EGLCAVCGDNAACQHYGVRTCEGCKGFFKRTVQKNAKYVCLANKNCPGDKRRRNRCQYCRFQKCLAVGMVKEVVRTD [V48G]  -0.493 ± 0.041
3. EGLCAVCGDNAACQHYGVRTCEGCKGFFKRTVQKNAKYVCLANKNCPRDKRRRNRCQYCRFQKCLAVGMVKEVVRTD [V48R]  -0.449 ± 0.1
4. EGLCAVCGDNAACQHYGVRTCEGCKGFFKRTVQKNAKYVCLANKNCPADKRRRNRCQYCRFQKCLAVGMVKEVVRTD [V48A]  -0.409 ± 0.17
5. EGLCAVCGDNAACQHYGVRTCEGCKGFFKRTVQKNAKYVCLANKNCPFDKRRRNRCQYCRFQKCLAVGMVKEVVRTD [V48F]  -0.407 ± 0.11
6. EGLCAVCGDNAACQHYGVRTCEGCKGFFKRTVQKNAKYVCLANKNCPVVKRRRNRCQYCRFQKCLAVGMVKEVVRTD [D49V]  -0.326 ± 0.049
7. EGLCAVCGDNAACQHYGVRTCEGCKGFFKRTVQKNAKYVCLANKNCPWDKRRRNRCQYCRFQKCLAVGMVKEVVRTD [V48W]  -0.258 ± 0.05
8. EGLCAVCGDNAACQHYGVRTCEGCKGFFKRTVQKNAKYVCLANKNCPVLKRRRNRCQYCRFQKCLAVGMVKEVVRTD [D49L]  -0.222 ± 0.078
9. EGLCAVCGDNAACQHYGVRTCEGCKGFFKRTVQKNAKYVCLANKNCPVRKRRRNRCQYCRFQKCLAVGMVKEVVRTD [D49R]  -0.22 ± 0.073
10. EGLCAVCGDNAACQHYGVRTCEGCKGFFKRTVQKNAKYVCLANKNCWVDKRRRNRCQYCRFQKCLAVGMVKEVVRTD [P47W]  -0.215 ± 0.062
11. EGLCAVCGDNAACQHYGVRTCEGCKGFFKRTVQKNAKYVCLANKNCPVDDRRRNRCQYCRFQKCLAVGMVKEVVRTD [K50D]  -0.215 ± 0.17
12. EGLCAVCGDNAACQHYGVRTCEGCKGFFKRTVQKNAKYVCLANKNCPVWKRRRNRCQYCRFQKCLAVGMVKEVVRTD [D49W]  -0.21 ± 0.062
13. EGLCAVCGDNAACQHYGVRTCEGCKGFFKRTVQKNAKYVCLANKNCPVFKRRRNRCQYCRFQKCLAVGMVKEVVRTD [D49F]  -0.204 ± 0.092
14. EGLCAVCGDNAACQHYGVRTCEGCKGFFKRTVQKNAKYVCLANKNCPVDRRRRNRCQYCRFQKCLAVGMVKEVVRTD [K50R]  -0.193 ± 0.082
15. EGLCAVCGDNAACQHYGVRTCEGCKGFFKRTVQKNAKYVCLANKNCPLDKRRRNRCQYCRFQKCLAVGMVKEVVRTD [V48L]  -0.175 ± 0.067
16. EGLCAVCGDNAACQHYGVRTCEGCKGFFKRTVQKNAKYVCLANKNCPCDKRRRNRCQYCRFQKCLAVGMVKEVVRTD [V48C]  -0.156 ± 0.067
17. EGLCAVCGDNAACQHYGVRTCEGCKGFFKRTVQKNAKYVCLANKNCPVDLRRRNRCQYCRFQKCLAVGMVKEVVRTD [K50L]  -0.155 ± 0.073
18. EGLCAVCGDNAACQHYGVRTCEGCKGFFKRTVQKNAKYVCLANKNCPVYKRRRNRCQYCRFQKCLAVGMVKEVVRTD [D49Y]  -0.148 ± 0.27
19. EGLCAVCGDNAACQHYGVRTCEGCKGFFKRTVQKNAKYVCLANKNCPVAKRRRNRCQYCRFQKCLAVGMVKEVVRTD [D49A]  -0.135 ± 0.084
20. EGLCAVCGDNAACQHYGVRTCEGCKGFFKRTVQKNAKYVCLANKNCPVDCRRRNRCQYCRFQKCLAVGMVKEVVRTD [K50C]  -0.115 ± 0.074
21. EGLCAVCGDNAACQHYGVRTCEGCKGFFKRTVQKNAKYVCLANKNCPVMKRRRNRCQYCRFQKCLAVGMVKEVVRTD [D49M]  -0.11 ± 0.37
22. EGLCAVCGDNAACQHYGVRTCEGCKGFFKRTVQKNAKYVCLANKNCPVDARRRNRCQYCRFQKCLAVGMVKEVVRTD [K50A]  -0.098 ± 0.088
23. EGLCAVCGDNAACQHYGVRTCEGCKGFFKRTVQKNAKYVCLANKNCPSDKRRRNRCQYCRFQKCLAVGMVKEVVRTD [V48S]  -0.091 ± 0.17
24. EGLCAVCGDNAACQHYGVRTCEGCKGFFKRTVQKNAKYVCLANKNCPVGKRRRNRCQYCRFQKCLAVGMVKEVVRTD [D49G]  -0.073 ± 0.035
25. EGLCAVCGDNAACQHYGVRTCEGCKGFFKRTVQKNAKYVCLANKNCVVDKRRRNRCQYCRFQKCLAVGMVKEVVRTD [P47V]  -0.056 ± 0.049
26. EGLCAVCGDNAACQHYGVRTCEGCKGFFKRTVQKNAKYVCLANKNCPVDFRRRNRCQYCRFQKCLAVGMVKEVVRTD [K50F]  -0.055 ± 0.094
27. EGLCAVCGDNAACQHYGVRTCEGCKGFFKRTVQKNAKYVCLANKNCPVDGRRRNRCQYCRFQKCLAVGMVKEVVRTD [K50G]  -0.045 ± 0.037
28. EGLCAVCGDNAACQHYGVRTCEGCKGFFKRTVQKNAKYVCLANKNCPMDKRRRNRCQYCRFQKCLAVGMVKEVVRTD [V48M]  -0.032 ± 0.27
29. EGLCAVCGDNAACQHYGVRTCEGCKGFFKRTVQKNAKYVCLANKNCPVDWRRRNRCQYCRFQKCLAVGMVKEVVRTD [K50W]  -0.031 ± 0.057
30. EGLCAVCGDNAACQHYGVRTCEGCKGFFKRTVQKNAKYVCLANKNCPVDSRRRNRCQYCRFQKCLAVGMVKEVVRTD [K50S]  -0.001 ± 0.097
31. EGLCAVCGDNAACQHYGVRTCEGCKGFFKRTVQKNAKYVCLANKNCPVTKRRRNRCQYCRFQKCLAVGMVKEVVRTD [D49T]  0.013 ± 0.23
32. EGLCAVCGDNAACQHYGVRTCEGCKGFFKRTVQKNAKYVCLANKNCPVDYRRRNRCQYCRFQKCLAVGMVKEVVRTD [K50Y]  0.024 ± 0.13
33. EGLCAVCGDNAACQHYGVRTCEGCKGFFKRTVQKNAKYVCLANKNCPVEKRRRNRCQYCRFQKCLAVGMVKEVVRTD [D49E]  0.033 ± 0.097
34. EGLCAVCGDNAACQHYGVRTCEGCKGFFKRTVQKNAKYVCLANKNCPVDTRRRNRCQYCRFQKCLAVGMVKEVVRTD [K50T]  0.102 ± 0.24
35. EGLCAVCGDNAACQHYGVRTCEGCKGFFKRTVQKNAKYVCLANKNCPVDERRRNRCQYCRFQKCLAVGMVKEVVRTD [K50E]  0.175 ± 0.15
36. EGLCAVCGDNAACQHYGVRTCEGCKGFFKRTVQKNAKYVCLANKNCPVDPRRRNRCQYCRFQKCLAVGMVKEVVRTD [K50P]  0.356 ± 0.29
